This note sets out measurements from patent US20240167007A1 (RHEINISCHE FRIEDRICH WILHELMS UNIVERSIT T BONN, published 2024).

Data set [1] concerns the target mannose 6-phosphate (M6P) receptor (MPR300) on human hepatoma cells (HuH7) (human), P11717. Briefly: cell-based or functional assay.
Data set [2] concerns the molecule itself. Briefly: size exclusion chromatography (Superdex 200), pH 7.0; self-association. How it is done: The indicated hASA-variants were separated by size exclusion chromatography using a Superdex 200 column (Amersham Pharmacia) linked to an Äkta FPLC system (GE Healthcare). The buffer was 150 mM NaCl, 20 mM Bis-Tris, pH 7.0. Fractions (0.5 ml) were collected and analysed on ASA activity using p-nitrocatechol sulfate as a substrate. Elution profiles of the four indicated hASA-variants are superimposed. While wildtype hASA presents as a dimer at neutral pH, E424A-mutants form octamers.
(SEC sorts molecules by how far they enter the pores of the column.)

Sequence of mannose 6-phosphate (M6P) receptor (MPR300) on human hepatoma cells (HuH7) (human), P11717 (P11717 41-2491): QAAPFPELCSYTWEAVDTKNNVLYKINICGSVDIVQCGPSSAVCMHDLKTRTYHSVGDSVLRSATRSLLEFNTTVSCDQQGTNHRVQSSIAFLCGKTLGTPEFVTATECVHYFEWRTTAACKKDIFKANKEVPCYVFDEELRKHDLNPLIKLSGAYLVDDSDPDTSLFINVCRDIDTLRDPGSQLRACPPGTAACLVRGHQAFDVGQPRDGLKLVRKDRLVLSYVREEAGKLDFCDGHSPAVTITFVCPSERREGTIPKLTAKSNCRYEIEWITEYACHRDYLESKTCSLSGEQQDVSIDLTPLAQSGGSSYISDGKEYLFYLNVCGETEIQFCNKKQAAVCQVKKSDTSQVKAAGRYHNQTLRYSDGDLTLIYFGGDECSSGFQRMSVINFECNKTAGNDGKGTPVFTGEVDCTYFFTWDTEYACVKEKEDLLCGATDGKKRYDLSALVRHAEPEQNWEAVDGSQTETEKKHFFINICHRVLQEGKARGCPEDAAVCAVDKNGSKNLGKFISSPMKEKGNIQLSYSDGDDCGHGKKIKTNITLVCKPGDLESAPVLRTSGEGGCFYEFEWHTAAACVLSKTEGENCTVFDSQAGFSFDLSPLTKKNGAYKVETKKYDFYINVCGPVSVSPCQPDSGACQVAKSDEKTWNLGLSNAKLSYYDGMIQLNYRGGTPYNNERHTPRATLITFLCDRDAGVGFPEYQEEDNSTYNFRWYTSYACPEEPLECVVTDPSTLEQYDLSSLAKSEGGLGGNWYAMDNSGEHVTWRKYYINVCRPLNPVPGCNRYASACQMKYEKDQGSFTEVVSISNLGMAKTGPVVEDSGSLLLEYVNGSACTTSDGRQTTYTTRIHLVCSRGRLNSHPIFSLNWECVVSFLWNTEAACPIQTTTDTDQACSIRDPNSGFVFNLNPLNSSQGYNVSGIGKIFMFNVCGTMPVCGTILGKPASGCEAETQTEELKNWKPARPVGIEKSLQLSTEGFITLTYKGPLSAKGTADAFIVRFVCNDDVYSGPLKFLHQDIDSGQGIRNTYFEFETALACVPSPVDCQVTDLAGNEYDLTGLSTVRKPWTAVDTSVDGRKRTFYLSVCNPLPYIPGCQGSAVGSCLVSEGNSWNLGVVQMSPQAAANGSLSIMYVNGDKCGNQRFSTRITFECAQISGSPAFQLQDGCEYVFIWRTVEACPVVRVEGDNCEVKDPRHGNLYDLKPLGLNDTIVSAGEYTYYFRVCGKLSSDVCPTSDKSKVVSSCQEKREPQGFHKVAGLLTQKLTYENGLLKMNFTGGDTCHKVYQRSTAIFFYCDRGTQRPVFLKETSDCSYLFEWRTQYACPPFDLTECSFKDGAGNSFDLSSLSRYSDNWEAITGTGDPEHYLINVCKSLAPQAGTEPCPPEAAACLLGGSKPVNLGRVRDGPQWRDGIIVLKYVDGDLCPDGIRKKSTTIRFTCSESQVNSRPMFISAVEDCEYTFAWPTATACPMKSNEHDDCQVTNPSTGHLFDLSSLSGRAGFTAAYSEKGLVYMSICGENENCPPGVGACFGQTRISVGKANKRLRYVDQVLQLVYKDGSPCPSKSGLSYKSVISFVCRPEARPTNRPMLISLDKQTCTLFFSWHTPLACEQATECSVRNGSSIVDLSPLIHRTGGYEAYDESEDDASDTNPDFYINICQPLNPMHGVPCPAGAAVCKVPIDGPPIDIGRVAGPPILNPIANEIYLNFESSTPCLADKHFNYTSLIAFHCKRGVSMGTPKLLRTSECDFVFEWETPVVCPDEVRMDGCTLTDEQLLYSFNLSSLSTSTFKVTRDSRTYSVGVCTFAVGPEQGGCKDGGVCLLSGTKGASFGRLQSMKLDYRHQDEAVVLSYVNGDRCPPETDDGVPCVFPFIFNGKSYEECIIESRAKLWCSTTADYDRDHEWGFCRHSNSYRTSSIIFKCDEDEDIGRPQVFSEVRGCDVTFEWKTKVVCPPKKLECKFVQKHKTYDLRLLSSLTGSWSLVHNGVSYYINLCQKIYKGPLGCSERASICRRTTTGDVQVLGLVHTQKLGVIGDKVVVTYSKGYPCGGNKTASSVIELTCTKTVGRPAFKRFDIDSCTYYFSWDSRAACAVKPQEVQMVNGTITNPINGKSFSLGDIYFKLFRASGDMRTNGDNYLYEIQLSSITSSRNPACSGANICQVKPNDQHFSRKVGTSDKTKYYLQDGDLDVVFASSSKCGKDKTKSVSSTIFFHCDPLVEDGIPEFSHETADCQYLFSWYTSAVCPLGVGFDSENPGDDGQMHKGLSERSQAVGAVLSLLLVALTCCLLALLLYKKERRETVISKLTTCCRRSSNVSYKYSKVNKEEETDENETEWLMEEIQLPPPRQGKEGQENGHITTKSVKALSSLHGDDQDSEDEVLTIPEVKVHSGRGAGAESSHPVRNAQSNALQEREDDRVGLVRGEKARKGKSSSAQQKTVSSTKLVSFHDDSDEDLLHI

B1: hARSA-mutant E424A, P15289 19-507 (enzyme)
chain: RPPNIVLIFADDLGYGDLGCYGHPSSTTPNLDQLAAGGLRFTDFYVPVSLCTPSRAALLTGRLPVRMGMYPGVLVPSSRGGLPLEEVTVAEVLAARGYLTGMAGKWHLGVGPEGAFLPPHQGFHRFLGIPYSHDQGPCQNLTCFPPATPCDGGCDQGLVPIPLLANLSVEAQPPWLPGLEARYMAFAHDLMADAQRQDRPFFLYYASHHTHYPQFSGQSFAERSGRGPFGDSLMELDAAVGTLMTAIGDLGLLEETLVIFTADNGPETMRMSRGGCSGLLRCGKGTTYEGGVREPALAFWPGHIAPGVTHELASSLDLLPTLAALAGAPLPNVTLDGFDLSPLLLGTGKSPRQSLFFYPSYPDEVRGVFAVRTGKYKAHFFTQGSAHSDTTADPACHASSSLTAHAPPLLYDLSKDPGENYNLLGGVAGATPEVLQALKQLQLLKAQLDAAVTFGPSQVARGEDPALQICCHPGCTPRPACCHCPDPHA
In turn, B1 yielded an uptake by the human hepatoma cell line HuH7, compared to wildtype hARSA (internalized enzyme by ELISA) in data set [1] of 20%.

B2: wildtype human arylsulfatase A (enzyme)
chain: RPPNIVLIFADDLGYGDLGCYGHPSSTTPNLDQLAAGGLRFTDFYVPVSLCTPSRAALLTGRLPVRMGMYPGVLVPSSRGGLPLEEVTVAEVLAARGYLTGMAGKWHLGVGPEGAFLPPHQGFHRFLGIPYSHDQGPCQNLTCFPPATPCDGGCDQGLVPIPLLANLSVEAQPPWLPGLEARYMAFAHDLMADAQRQDRPFFLYYASHHTHYPQFSGQSFAERSGRGPFGDSLMELDAAVGTLMTAIGDLGLLEETLVIFTADNGPETMRMSRGGCSGLLRCGKGTTYEGGVREPALAFWPGHIAPGVTHELASSLDLLPTLAALAGAPLPNVTLDGFDLSPLLLGTGKSPRQSLFFYPSYPDEVRGVFAVRTGKYKAHFFTQGSAHSDTTADPACHASSSLTAHEPPLLYDLSKDPGENYNLLGGVAGATPEVLQALKQLQLLKAQLDAAVTFGPSQVARGEDPALQICCHPGCTPRPACCHCPDPHA
notes: Expressed in CHO cells and glycosylated; also called wildtype hARSA; wildtype hASA
Turning to B2, the binding result in data set [2] is reported as “binds”.
